Data on 66 substances can be found in the array DNA melting data of Ke et al..

In general, Tm refers to the temperature at the midpoint of the melting transition.

This series in a line: melting temperature; melt of duplexes. The conditions noted are these: sodium 0.0675 M; strand 1 µM.
Regarding “CGACGTGCGGGATGTGCTG+CAGCACATCACGCACGTCG (((((((((.(((((((((+))))))))).)))))))))”, the Tm was determined as 63.8 °C. For “CGACGTGCGAGATGTGCTG+CAGCACATGACGCACGTCG (((((((((..((((((((+))))))))..)))))))))” the value was 53.2 °C; for “CGACGTGCATAATGTGCTG+CAGCACATGACGCACGTCG ((((((((.(.((((((((+)))))))).).))))))))”, 50.5 °C. On to “CGACGTGCACAATGTGCTG+CAGCACATGCGGCACGTCG ((((((((...((((((((+))))))))...))))))))”, for which the Tm stood at 46.6 °C.

As to “CGACGTGCAATATGTGCTG+CAGCACATAATGCACGTCG (((((((((.(((((((((+))))))))).)))))))))”, the Tm was found to be 54.6 °C.

In the case of “CGACGTGCCCTATGTGCTG+CAGCACATTAAGCACGTCG ((((((((...((((((((+))))))))...))))))))”, the Tm came out at 48.7 °C. For the substance “CGACGTGCTTAATGTGCTG+CAGCACATGAAGCACGTCG ((((((((((.((((((((+)))))))).))))))))))”, the midpoint of thermal melting (Tm) worked out at 57.4 °C. As for “CGACGTGCTAAATGTGCTG+CAGCACATTAGGCACGTCG ((((((((..(((((((((+)))))))))..))))))))”, the Tm worked out at 53.8 °C. For “CGACGTGCGAGATGTGCTG+CAGCACATCATGCACGTCG ((((((((..(((((((((+)))))))))..))))))))” the value was 56.7 °C; for “CGACGTGCGTGATGTGCTG+CAGCACATTGGGCACGTCG ((((((((...((((((((+))))))))...))))))))”, 52.3 °C. With “CGACGTGCCCTATGTGCTG+CAGCACATACCGCACGTCG ((((((((..(((((((((+)))))))))..))))))))”, the Tm was 47.4 °C. As for “CGACGTGCTGTATGTGCTG+CAGCACATGTAGCACGTCG (((((((((..((((((((+))))))))..)))))))))”, the Tm worked out at 53.3 °C.

Turning to “CGACGTGCCGTATGTGCTG+CAGCACATAGAGCACGTCG ((((((((..(((((((((+)))))))))..))))))))”, the Tm turned out to be 53.1 °C. Consider “CGACGTGCCACATGTGCTG+CAGCACATCTGGCACGTCG ((((((((((.((((((((+)))))))).))))))))))”, for which the Tm came to 55.2 °C. In the case of “CGACGTGCCCTATGTGCTG+CAGCACATATGGCACGTCG (((((((((.(((((((((+))))))))).)))))))))”, the Tm turned out to be 55.8 °C. Regarding “CGACGTGCACTATGTGCTG+CAGCACATAACGCACGTCG ((((((((..(((((((((+)))))))))..))))))))”, the melting temperature (Tm) came to 46.2 °C. “CGACGTGCCTGATGTGCTG+CAGCACATACGGCACGTCG (((((((((..((((((((+))))))))..)))))))))”: the Tm was found to be 54.1 °C.

For the substance “CGACGTGCTGCATGTGCTG+CAGCACATAACGCACGTCG ((((((((...((((((((+))))))))...))))))))”, the Tm is 49.4 °C. Regarding “CGACGTGCAAAATGTGCTG+CAGCACATGGGGCACGTCG ((((((((...((((((((+))))))))...))))))))”, the Tm is 51.7 °C.

“CGACGTGCTAGATGTGCTG+CAGCACATCTTGCACGTCG ((((((((.((((((((((+)))))))))).))))))))”: the Tm is 58.7 °C. Regarding “CGACGTGCGGCATGTGCTG+CAGCACATAGGGCACGTCG ((((((((...((((((((+))))))))...))))))))”, the Tm was found to be 49.5 °C.

In the case of “CGACGTGCAGTATGTGCTG+CAGCACATACAGCACGTCG ((((((((.((((((((((+)))))))))).))))))))”, the Tm was determined as 57.4 °C. Turning to “CGACGTGCATCATGTGCTG+CAGCACATTGGGCACGTCG ((((((((...((((((((+))))))))...))))))))”, the Tm was found to be 50 °C. “CGACGTGCCTCATGTGCTG+CAGCACATCCAGCACGTCG ((((((((...((((((((+))))))))...))))))))”: the Tm amounted to 47.4 °C.

As for “CGACGTGCCCTATGTGCTG+CAGCACATCTTGCACGTCG ((((((((...((((((((+))))))))...))))))))”, the Tm was 47.3 °C. For “CGACGTGCACGATGTGCTG+CAGCACATAGCGCACGTCG ((((((((.(.((((((((+)))))))).).))))))))”, the Tm was 50.3 °C. Turning to “CGACGTGCAGAATGTGCTG+CAGCACATGCGGCACGTCG ((((((((.(.((((((((+)))))))).).))))))))”, the Tm was found to be 54.4 °C.

For “CGACGTGCTCGATGTGCTG+CAGCACATTGGGCACGTCG ((((((((.(.((((((((+)))))))).).))))))))”, the Tm came out at 55.7 °C. As to “CGACGTGCATGATGTGCTG+CAGCACATATGGCACGTCG ((((((((...((((((((+))))))))...))))))))”, the Tm was determined as 49.7 °C.

In the case of “CGACGTGCATCATGTGCTG+CAGCACATATTGCACGTCG (((((((((..((((((((+))))))))..)))))))))”, the Tm turned out to be 50.3 °C. For “CGACGTGCTTAATGTGCTG+CAGCACATATAGCACGTCG (((((((((..((((((((+))))))))..)))))))))”, the Tm was found to be 54.2 °C.

Regarding “CGACGTGCTTTATGTGCTG+CAGCACATTAAGCACGTCG ((((((((((.((((((((+)))))))).))))))))))”, the Tm turned out to be 55.2 °C. Turning to “CGACGTGCCAAATGTGCTG+CAGCACATTGAGCACGTCG ((((((((..(((((((((+)))))))))..))))))))”, the Tm came to 53.9 °C. Consider “CGACGTGCGATATGTGCTG+CAGCACATCGTGCACGTCG ((((((((...((((((((+))))))))...))))))))”, for which the Tm is 44.3 °C. On to “CGACGTGCATTATGTGCTG+CAGCACATAGCGCACGTCG ((((((((..(((((((((+)))))))))..))))))))”, for which the Tm came out at 49.4 °C. “CGACGTGCACTATGTGCTG+CAGCACATGAGGCACGTCG ((((((((...((((((((+))))))))...))))))))”: the Tm is 47.5 °C.

In the case of “CGACGTGCTCTATGTGCTG+CAGCACATATAGCACGTCG (((((((((.(((((((((+))))))))).)))))))))”, the Tm was found to be 54.3 °C. As for “CGACGTGCGATATGTGCTG+CAGCACATTACGCACGTCG (((((((((..((((((((+))))))))..)))))))))”, the Tm is 54.7 °C. For “CGACGTGCTCGATGTGCTG+CAGCACATGTCGCACGTCG ((((((((...((((((((+))))))))...))))))))” the value was 48.2 °C.

With “CGACGTGCCGTATGTGCTG+CAGCACATAATGCACGTCG ((((((((..(((((((((+)))))))))..))))))))”, the Tm amounted to 50.3 °C. For “CGACGTGCTGGATGTGCTG+CAGCACATATAGCACGTCG (((((((((..((((((((+))))))))..)))))))))” the value was 54.6 °C; for “CGACGTGCTTTATGTGCTG+CAGCACATATTGCACGTCG ((((((((..(((((((((+)))))))))..))))))))”, 51.2 °C. Regarding “CGACGTGCGTTATGTGCTG+CAGCACATTGCGCACGTCG (((((((((..((((((((+))))))))..)))))))))”, the Tm came out at 55.7 °C.

For the substance “CGACGTGCCCGATGTGCTG+CAGCACATAGGGCACGTCG ((((((((((.((((((((+)))))))).))))))))))”, the Tm worked out at 61.5 °C. As for “CGACGTGCAGGATGTGCTG+CAGCACATAGTGCACGTCG (((((((((..((((((((+))))))))..)))))))))”, the Tm was 50.6 °C. On to “CGACGTGCATGATGTGCTG+CAGCACATTACGCACGTCG ((((((((.(.((((((((+)))))))).).))))))))”, for which the Tm was found to be 50.6 °C. Turning to “CGACGTGCAGAATGTGCTG+CAGCACATTGTGCACGTCG (((((((((.(((((((((+))))))))).)))))))))”, the Tm turned out to be 55.8 °C. Turning to “CGACGTGCTATATGTGCTG+CAGCACATGCGGCACGTCG ((((((((...((((((((+))))))))...))))))))”, the Tm worked out at 49.4 °C. With “CGACGTGCATTATGTGCTG+CAGCACATACTGCACGTCG (((((((((.(((((((((+))))))))).)))))))))”, the Tm is 53.8 °C. For “CGACGTGCTAGATGTGCTG+CAGCACATCTAGCACGTCG (((((((((((((((((((+)))))))))))))))))))” the value was 63.6 °C; for “CGACGTGCATGATGTGCTG+CAGCACATTCGGCACGTCG ((((((((...((((((((+))))))))...))))))))”, 50.3 °C. Consider “CGACGTGCATTATGTGCTG+CAGCACATGAGGCACGTCG ((((((((.(.((((((((+)))))))).).))))))))”, for which the Tm came out at 54 °C.

Regarding “CGACGTGCTCCATGTGCTG+CAGCACATTCCGCACGTCG ((((((((...((((((((+))))))))...))))))))”, the Tm turned out to be 45.6 °C.

Turning to “CGACGTGCCAGATGTGCTG+CAGCACATCCGGCACGTCG (((((((((.(((((((((+))))))))).)))))))))”, the Tm was found to be 59.2 °C. Regarding “CGACGTGCAGCATGTGCTG+CAGCACATTCGGCACGTCG ((((((((.(.((((((((+)))))))).).))))))))”, the Tm was 49.7 °C. Turning to “CGACGTGCAGGATGTGCTG+CAGCACATGATGCACGTCG (((((((((..((((((((+))))))))..)))))))))”, the Tm stood at 55 °C. With “CGACGTGCCGGATGTGCTG+CAGCACATTAGGCACGTCG (((((((((..((((((((+))))))))..)))))))))”, the Tm came to 57 °C. In the case of “CGACGTGCCCGATGTGCTG+CAGCACATGCCGCACGTCG ((((((((...((((((((+))))))))...))))))))”, the Tm stood at 48.1 °C. As for “CGACGTGCAAGATGTGCTG+CAGCACATTCGGCACGTCG ((((((((...((((((((+))))))))...))))))))”, the Tm was found to be 51.3 °C. “CGACGTGCTTTATGTGCTG+CAGCACATTTTGCACGTCG ((((((((...((((((((+))))))))...))))))))”: the Tm stood at 49.5 °C.

Consider “CGACGTGCGCCATGTGCTG+CAGCACATGGTGCACGTCG ((((((((.((((((((((+)))))))))).))))))))”, for which the Tm was determined as 62.5 °C. Regarding “CGACGTGCCGTATGTGCTG+CAGCACATTCGGCACGTCG ((((((((((.((((((((+)))))))).))))))))))”, the Tm worked out at 59.9 °C. Consider “CGACGTGCTTTATGTGCTG+CAGCACATTGCGCACGTCG ((((((((...((((((((+))))))))...))))))))”, for which the Tm is 46.4 °C. With “CGACGTGCCCAATGTGCTG+CAGCACATGATGCACGTCG ((((((((...((((((((+))))))))...))))))))”, the Tm was found to be 49.7 °C. With “CGACGTGCACAATGTGCTG+CAGCACATGTAGCACGTCG ((((((((...((((((((+))))))))...))))))))”, the Tm amounted to 50.7 °C. As for “CGACGTGCGTGATGTGCTG+CAGCACATCACGCACGTCG (((((((((((((((((((+)))))))))))))))))))”, the Tm turned out to be 66.2 °C.
